Laboratory results taken from patent US20080118504A1 (University of California, published 2008).

Experiments:
[1] = target: T1, TLR4 containing N-terminal HA-tag, stably transfected in CHO (EL1) cells (UniProt O00206 24-839, limits assumed); experiment: FACS with anti-His and anti-HA on TLR4 transfected EL-1 (CHO) cells, receptor numbers from a microbead standard curve
T1 construct: whole, on cells; also called membrane TLR4; TLR4 transfected EL-1 cells; not shown: N-terminal HA-tag
Procedure: (§1) LPS activation increased with increasing MD-2 levels on the cell surface. TLR4 transfected EL-1 cells (a CHO cell line stably transfected with NF-κB/CD25 reporter plasmid) were incubated with various amount of soluble MD-2 for 20 min. The amount of soluble MD-2 that bound to TLR4 transfected cells as well as the TLR4 expression level were assayed by FACS analysis using antibody to His-tag and HA-tag, respectively. The MD-2 and TLR4 receptor numbers were calculated by converting mean channel number (MCN) of fluorescence intensity using the standard curve generated with Simply Cellular Microbeads. The cells were also activated with 100 ng/ml LPS and NF-κB activation assayed by FACS analysis of surface CD25 expression.
(§2) Various concentrations of sMD-2, plotted on the x-axis, was added to CHO (EL1) cells stably transfected with TLR4. The amount of TLR4 and MD-2 on the cell surface was analyzed by FACS using anti-HA tag and anti-His tag antibody, respectively. The receptor numbers plotted on the left Y-axis were calculated from mean channel number (MCN) and the standard curves generated by simply cellular microbeads. The cells were also activated with 100 ng/ml of LPS.

[2] = target: T1, TLR4 containing N-terminal HA-tag, …; experiment: FACS with anti-His and anti-HA on TLR4 transfected EL-1 (CHO) cells, receptor numbers from a microbead standard curve; 0.5 nM sMD-2, 20 min
Procedure: as §1, §2

[3] = target: T1, TLR4 containing N-terminal HA-tag, …; experiment: FACS with anti-His tag of purified sMD-2 on TLR4 transfected EL1 (CHO) cells
Procedure: To determine sMD-2 mutants binding to TLR4, the purified proteins were added to TLR4 transfected EL1 cells, washed off excess protein after 15 min or overnight incubation, stained with anti-His tag antibody and analyzed by FACS. FIG. 10 illustrates data showing LPS activation of sMD-2. TLR4 transfected CHO cells harboring CD25 reporter plasmids were activated with 100 ng/ml LPS in the absence and presence of 5 ug/ml of sMD-2 and the NF-κB activation was measured by FACS analysis of CD25 surface expression (MCN) using anti-CD25-PE. […] None of mutants with mostly oligomers remained in association to TLR4 cells after 16 hr. The unglycosylated MD-2 bound normally to TLR4 cells after 15 min but the binding was reduced after 16 hr.

T1 sequence (O00206 24-839 limits assumed): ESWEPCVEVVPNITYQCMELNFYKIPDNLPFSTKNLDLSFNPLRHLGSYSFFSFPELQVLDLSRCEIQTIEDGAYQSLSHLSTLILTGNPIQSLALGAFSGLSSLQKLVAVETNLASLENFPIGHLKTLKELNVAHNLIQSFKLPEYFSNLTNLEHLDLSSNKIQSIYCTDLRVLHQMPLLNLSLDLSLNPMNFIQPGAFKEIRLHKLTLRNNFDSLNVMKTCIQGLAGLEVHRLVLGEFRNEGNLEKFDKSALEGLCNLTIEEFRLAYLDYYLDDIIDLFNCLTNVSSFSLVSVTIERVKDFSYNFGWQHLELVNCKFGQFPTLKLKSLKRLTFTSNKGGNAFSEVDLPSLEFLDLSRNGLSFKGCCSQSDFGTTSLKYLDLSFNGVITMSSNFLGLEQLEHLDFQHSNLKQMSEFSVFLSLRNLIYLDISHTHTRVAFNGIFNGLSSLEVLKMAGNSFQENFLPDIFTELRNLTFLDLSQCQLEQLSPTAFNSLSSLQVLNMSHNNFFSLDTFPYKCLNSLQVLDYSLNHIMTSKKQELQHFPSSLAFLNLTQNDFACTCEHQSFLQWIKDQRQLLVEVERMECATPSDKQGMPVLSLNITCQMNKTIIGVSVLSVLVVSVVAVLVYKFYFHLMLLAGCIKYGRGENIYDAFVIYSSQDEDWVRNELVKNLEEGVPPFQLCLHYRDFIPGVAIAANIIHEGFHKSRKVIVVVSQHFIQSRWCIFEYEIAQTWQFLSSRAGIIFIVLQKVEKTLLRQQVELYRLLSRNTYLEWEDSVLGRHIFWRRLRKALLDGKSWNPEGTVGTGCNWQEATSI

| calculated ratio of MD-2 per TLR4 at maximal LPS activation [1] [MD-2 per TLR4] | calculated ratio of surface MD-2 per TLR4 [2] [MD-2 per TLR4] | binding result [3] | Binder |
| --- | --- | --- | --- |
| ~5 | 0.5 | – | soluble MD-2 wild type (human MD-2 with C-terminal His-tag, from insect cells) (other, Expressed with the gp64 signal peptide in place of its own; The purified protein is a mixture of monomer and disulfide-linked oligomers; also called sMD-2; sMD-2 WT; not shown: C-terminal V5/His tag of the vector (pBlueBac4.5/V5-His or pBac11)) EAQKQYWVCNSSDASISYTYCDKMQYPISINVNPCIELKGSKGLLHIFYIPRRDLKQLYFNLYITVNTMNLPKRKEVICRGSDDDYSFCRALKGETVNTTISFSFKGIKFSKGKYKCVVEAISGSPEEMLFCLEFVILHQPNSN |
| – | – | no binding (tested: 1 or 5 µg/ml) | soluble MD-2 alanine replacement mutant 127-131 (other, Expressed as a monomer; also called mutant SKGKY; not shown: C-terminal V5/His tag of the vector) EAQKQYWVCNSSDASISYTYCDKMQYPISINVNPCIELKGSKGLLHIFYIPRRDLKQLYFNLYITVNTMNLPKRKEVICRGSDDDYSFCRALKGETVNTTISFSFKGIKFAAAAAKCVVEAISGSPEEMLFCLEFVILHQPNSN |
